Data set [1] deals with T1, mTREX1 truncated (nuclease domain) (Mus musculus, UniProt Q91XB0 1-242).
T1 sequence: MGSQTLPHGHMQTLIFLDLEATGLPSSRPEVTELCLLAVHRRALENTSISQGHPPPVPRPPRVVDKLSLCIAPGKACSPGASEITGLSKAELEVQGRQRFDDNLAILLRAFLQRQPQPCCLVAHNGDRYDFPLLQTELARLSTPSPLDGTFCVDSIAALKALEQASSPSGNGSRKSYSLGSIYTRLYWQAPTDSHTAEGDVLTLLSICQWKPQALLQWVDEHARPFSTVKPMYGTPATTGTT
Briefly: fluorescence anisotropy; 20 mM EDTA, no Mg2+; FA: 5 nM FAM nucleic acid, 120 mM NaCl, 20 mM Tris pH 7.0, 20 mM EDTA, room temperature, 30 min; RNase T EMSA: 120 mM NaCl, 50 mM EDTA, 20 mM buffer (truncated). To be noted: protein: recombinant, tags: His-tag, chain copies: 2. (In fluorescence polarisation assays a small probe gives low polarisation when free and higher when bound to something large.)

In data set [2] the target is T1, mTREX1 truncated (nuclease domain). Put plainly: fluorescence anisotropy; 20 mM EDTA; extrapolated; legend prints uM, but nM fits the stated ~500-fold drop vs ssDNA20; FA: 5 nM FAM nucleic acid, 120 mM NaCl, 20 mM Tris pH 7.0, 20 mM EDTA, room temperature, 30 min; RNase T EMSA: 120 mM NaCl, 50 mM EDTA, 20 mM buffer (truncated). Particulars: protein: recombinant; tags: His-tag; chain copies: 2; label: 5'-FAM; single strand.

Data set [3] has the same target. Put plainly: fluorescence anisotropy; 20 mM EDTA; not saturated, extrapolated (legend prints uM, text nM); FA: 5 nM FAM nucleic acid, 120 mM NaCl, 20 mM Tris pH 7.0, 20 mM EDTA, room temperature, 30 min; RNase T EMSA: 120 mM NaCl, 50 mM EDTA, 20 mM buffer (truncated). To be noted: protein: recombinant; tags: His-tag; chain copies: 2; label: 5'-FAM; single strand.
Data set [4] shares this target. Briefly: fluorescence anisotropy; 20 mM EDTA; Kd stated between those of dsDNA (139.4 nM) and DNA/RNA hybrid (102.0 nM); FA: 5 nM FAM nucleic acid, 120 mM NaCl, 20 mM Tris pH 7.0, 20 mM EDTA, room temperature, 30 min; RNase T EMSA: 120 mM NaCl, 50 mM EDTA, 20 mM buffer (truncated). Particulars: protein: recombinant; tags: His-tag; chain copies: 2; label: 5'-FAM on strand 1; blunt.

B1: DNA/RNA hybrid 20 bp (DNA:RNA)
DNA: ACTGGACAAATACTCCGAGG
RNA: CCUCGGAGUAUUUGUCCAGU
The term Kd denotes the equilibrium constant for the complex coming apart. With B1, the Kd in data set [1] (blunt) is 102 ± 8 nM. As for ACTGGACAAATACTCCGAGG (ssDNA) [ssDNA20], the Kd in data set [1] (label: 5'-FAM, single strand) came to 77.7 ± 6 nM.

As to ACTGGACAAATACTCCGAGG (mixed, 3'-terminal A18 G19 G20 are ribonucleotides; positions 1-17 DNA) [ssDNA17+RNA3 (ss17D3R)], in data set [2], the Kd is around 39600 nM. Consider ACUGGACAAAUACUCCGAGG (ssRNA) [ssRNA20], for which the Kd in data set [3] was around 59000 nM.

B2: dsDNA19+RNA1 (ss19D1R/ssDNA20) (mixed)
DNA 1: ACTGGACAAATACTCCGAGG
DNA 2: CCTCGGAGTATTTGTCCAGT
modifications: strand 1 3'-terminal G20 is a ribonucleotide; rest DNA
B2: the binding result in data set [4] is “binds”.

B3: dsDNA20 (dsDNA)
DNA 1: ACTGGACAAATACTCCGAGG
DNA 2: CCTCGGAGTATTTGTCCAGT
Regarding B3, the Kd in data set [1] (label: 5'-FAM on strand 1, blunt) was 139 ± 17.2 nM.
